These results are taken from patent publication US20260250421A1 (BIOCYTOGEN PHARMACEUTICALS BEIJING, published 2026).

What all share (experiment): SPR Biacore 8K, Ab on Protein A chip
For experiment [1], the target named is T1, His-tagged monkey TROP2 protein (cynomolgus monkey; Rhesus …, UniProt A0A5F8AGB8 27-274).
T1 construct: also called cTROP2-His; ACRO Biosystems Cat# TR2-R52H3
T1 sequence: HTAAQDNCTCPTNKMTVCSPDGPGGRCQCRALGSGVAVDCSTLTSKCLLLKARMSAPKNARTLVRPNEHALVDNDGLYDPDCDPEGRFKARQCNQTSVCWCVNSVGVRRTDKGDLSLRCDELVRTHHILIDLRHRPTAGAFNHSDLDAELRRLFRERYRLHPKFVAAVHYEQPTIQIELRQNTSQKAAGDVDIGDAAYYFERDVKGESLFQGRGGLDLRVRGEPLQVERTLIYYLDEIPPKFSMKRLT

The target of experiment [2] is T2, His-tagged dog PTK7 protein (dog, UniProt Q13308 31-703 (human entry)).
T2 construct: also called dPTK7-His
T2 chain: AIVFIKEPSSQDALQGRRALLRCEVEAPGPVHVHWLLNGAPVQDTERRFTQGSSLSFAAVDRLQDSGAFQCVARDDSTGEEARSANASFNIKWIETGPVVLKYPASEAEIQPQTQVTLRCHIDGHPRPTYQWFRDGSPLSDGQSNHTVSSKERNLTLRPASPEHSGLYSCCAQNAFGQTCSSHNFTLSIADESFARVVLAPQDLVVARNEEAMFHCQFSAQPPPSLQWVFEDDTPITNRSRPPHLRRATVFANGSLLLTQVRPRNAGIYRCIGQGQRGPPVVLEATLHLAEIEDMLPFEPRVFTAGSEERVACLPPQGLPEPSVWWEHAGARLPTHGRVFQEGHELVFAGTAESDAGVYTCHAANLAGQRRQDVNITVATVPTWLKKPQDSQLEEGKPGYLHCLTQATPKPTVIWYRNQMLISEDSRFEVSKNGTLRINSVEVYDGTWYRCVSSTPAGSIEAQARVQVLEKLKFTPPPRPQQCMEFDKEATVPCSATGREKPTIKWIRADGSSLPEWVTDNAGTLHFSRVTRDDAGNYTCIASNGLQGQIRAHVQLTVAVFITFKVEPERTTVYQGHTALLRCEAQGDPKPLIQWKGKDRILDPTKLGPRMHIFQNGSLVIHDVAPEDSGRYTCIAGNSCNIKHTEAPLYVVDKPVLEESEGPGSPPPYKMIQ
As to the method:
(§1) The affinity of the anti-PTK7/TROP2 bispecific antibodies to His-tagged human TROP2 protein (hTROP2-His, ACRO Biosystems Inc., Cat #: TR2-H5223), His-tagged […] monkey TROP2 protein (cTROP2-His, ACRO Biosystems Inc., Cat #: Cat: TR2-R52H3), His-tagged dog TROP2 protein (dTROP2-His, ACRO Biosystems Inc., Cat #: TR2-C52H4), hPTK7-His, cPTK7-His and dPTK7-His were measured by surface plasmon resonance (SPR) using Biacore™ (Biacore, INC, Piscataway N.J.) 8K biosensor equipped with pre-immobilized Protein A sensor chips.

The target in experiment [3] is T3, His-tagged cynomolgus monkey PTK7 protein (cynomolgus monkey, UniProt A0A2K5VNI5 39-712).
T3 construct: Bought protein; also called cPTK7-His; ACRO Biosystems Cat# PT7-C52H3; not shown: His tag
T3 sequence: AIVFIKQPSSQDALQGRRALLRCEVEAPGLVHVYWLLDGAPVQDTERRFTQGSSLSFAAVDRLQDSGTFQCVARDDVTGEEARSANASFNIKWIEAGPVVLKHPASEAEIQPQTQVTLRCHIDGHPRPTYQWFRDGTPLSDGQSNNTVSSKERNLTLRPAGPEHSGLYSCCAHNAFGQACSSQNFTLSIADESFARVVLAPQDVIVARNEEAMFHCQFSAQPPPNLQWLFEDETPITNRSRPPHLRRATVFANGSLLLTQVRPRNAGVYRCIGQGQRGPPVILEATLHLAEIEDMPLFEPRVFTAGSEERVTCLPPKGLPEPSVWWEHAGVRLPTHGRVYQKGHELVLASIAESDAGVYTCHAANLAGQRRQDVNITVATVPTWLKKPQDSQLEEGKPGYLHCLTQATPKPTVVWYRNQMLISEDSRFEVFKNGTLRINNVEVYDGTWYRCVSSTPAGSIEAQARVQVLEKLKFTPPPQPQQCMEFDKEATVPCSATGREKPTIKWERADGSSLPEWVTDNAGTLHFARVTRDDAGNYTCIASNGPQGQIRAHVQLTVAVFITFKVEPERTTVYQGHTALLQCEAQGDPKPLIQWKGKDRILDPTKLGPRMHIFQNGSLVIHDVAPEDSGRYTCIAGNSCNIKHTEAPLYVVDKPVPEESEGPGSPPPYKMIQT
How it is done: as §1

Experiment [4] has as its target T4, His-tagged human PTK7 protein (human, UniProt Q13308 31-704).
T4 construct: Bought protein; also called hPTK7-His; not shown: His tag
T4 sequence: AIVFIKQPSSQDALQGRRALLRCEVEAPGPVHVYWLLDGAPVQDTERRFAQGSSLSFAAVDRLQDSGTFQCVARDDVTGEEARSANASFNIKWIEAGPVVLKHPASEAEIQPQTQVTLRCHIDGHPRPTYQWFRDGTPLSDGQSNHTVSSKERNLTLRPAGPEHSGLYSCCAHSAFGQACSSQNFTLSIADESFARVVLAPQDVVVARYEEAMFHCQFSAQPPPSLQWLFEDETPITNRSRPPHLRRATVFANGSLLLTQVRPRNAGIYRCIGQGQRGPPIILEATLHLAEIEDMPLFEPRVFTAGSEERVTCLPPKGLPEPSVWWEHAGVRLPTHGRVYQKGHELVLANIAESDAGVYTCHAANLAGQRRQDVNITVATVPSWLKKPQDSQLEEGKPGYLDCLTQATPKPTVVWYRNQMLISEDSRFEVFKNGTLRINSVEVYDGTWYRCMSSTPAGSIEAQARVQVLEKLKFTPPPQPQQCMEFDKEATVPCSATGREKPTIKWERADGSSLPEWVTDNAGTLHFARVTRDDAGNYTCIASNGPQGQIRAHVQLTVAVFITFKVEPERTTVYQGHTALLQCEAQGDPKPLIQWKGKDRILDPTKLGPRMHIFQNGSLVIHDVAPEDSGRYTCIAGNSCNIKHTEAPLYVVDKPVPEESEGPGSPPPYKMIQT
How it is done:
as §1

For experiment [5], the target named is T5, His-tagged human TROP2 protein (human, UniProt P09758 27-274).
T5 construct: Bought protein; also called hTROP2-His; ACRO Biosystems Cat# TR2-H5223; not shown: His tag
T5 sequence (looked up): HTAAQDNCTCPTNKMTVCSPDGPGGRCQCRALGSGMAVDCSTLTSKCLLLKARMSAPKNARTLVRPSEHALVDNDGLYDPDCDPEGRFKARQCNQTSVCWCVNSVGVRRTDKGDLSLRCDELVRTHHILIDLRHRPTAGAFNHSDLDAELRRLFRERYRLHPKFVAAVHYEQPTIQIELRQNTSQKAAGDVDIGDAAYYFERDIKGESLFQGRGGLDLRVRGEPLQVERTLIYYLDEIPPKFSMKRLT
How it is done: as §1

B1: 3C4-6F7 (bispecific antibody, human IgG1, kappa)
heavy 1: not shown
heavy 2: EVQLVQSGPGLVKPSETLSLTCTVSGGSIDSGYYYWGWIRQPPGKGLEWIGSIYYIGTTYYIPSLKSRVTISVDTSKNRFSLKLTSVTAADTAVYYCARQPITVAGHDAFDIWGQGTMVTVSSASTKGPSVFPLAPSSKSTSGGTAALGCLVKDYFPEPVTVSWNSGALTSGVHTFPAVLQSSGLYSLSSVVTVPSSSLGTQTYICNVNHKPSNTKVDKKVEPKSCDKTHTCPPCPAPELLGGPSVFLFPPKPKDTLMISRTPEVTCVVVDVSHEDPEVKFNWYVDGVEVHNAKTKPREEQYNSTYRVVSVLTVLHQDWLNGKEYKCKVSNKALPAPIEKTISKAKGQPREPQVCTLPPSREEMTKNQVSLSCAVKGFYPSDIAVEWESNGQPENNYKTTPPVLDSDGSFFLVSKLTVDKSRWQQGNVFSCSVMHEALHNHYTQKSLSLSPGK
light: not shown
notes: Knobs-into-holes IgG1 with common light chain; also called anti-PTK7/TROP2 bispecific antibody 3C4-6F7
Usually Kd stands for the concentration at which binding is half-saturated. By koff is commonly meant the first-order rate constant of dissociation. A word on the kon: it is a measure of how fast the partners come together. Turning to B1, the Kd was 5.94 nM in experiment [1]; 52.5 nM in experiment [2]; 17.4 nM in experiment [3]; 13.2 nM in experiment [4]; 10.6 nM in experiment [5]. The koff in experiment [1] was 0.00179 s⁻¹; in experiment [2] it was 0.006 s⁻¹; in experiment [3] it was 0.00216 s⁻¹; in experiment [4] it was 0.00152 s⁻¹; in experiment [5] it was 0.00419 s⁻¹. In addition, the on-rate (kon) in experiment [1] stood at 301000 M⁻¹ s⁻¹; in experiment [2] it was 114000 M⁻¹ s⁻¹; in experiment [3], 124000 M⁻¹ s⁻¹; in experiment [4], 115000 M⁻¹ s⁻¹; in experiment [5], 394000 M⁻¹ s⁻¹.

B2: 3E6-18E9 (bispecific antibody, V domains shown)
VH 1: QVQLVESGAEVKKPGESLRISCRGSGYSFTSYWISWVRQMPGKGLEWMGRIDPSDSYTKYSPSFQGHVTISADKSISTAYLQWSSLKASDTAMYYCARRDGDYFDFDYWGQGTLVTVSS
VH 2: QLQLQQSGPGLLKPSETLSLTCTVSGGSISSSYYFWGWIRQPPGKGLEWIGAIYYIGNTHYNPSLKSRVTISIDTSKNQFSLNLNSVTAADTAIYYCARYEDTWNWFDPWGQGTLVTVSS
VL: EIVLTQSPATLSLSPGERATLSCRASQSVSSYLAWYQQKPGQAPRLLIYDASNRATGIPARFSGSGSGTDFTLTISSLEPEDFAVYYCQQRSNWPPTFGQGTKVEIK
notes: also called anti-PTK7/TROP2 bispecific antibody 3E6-18E9
Turning to B2, the dissociation constant Kd was 3.66 nM in experiment [1]; 16.7 nM in experiment [2]; 5.2 nM in experiment [3]; 3.14 nM in experiment [4]; 3.23 nM in experiment [5]. Moreover, the off-rate constant (koff) is 0.00119 s⁻¹ in experiment [1]; 0.00164 s⁻¹ in experiment [2]; 0.000623 s⁻¹ in experiment [3]; 0.000389 s⁻¹ in experiment [4]; 0.00116 s⁻¹ in experiment [5]. Moreover, the association rate constant (kon) in experiment [1] worked out at 325000 M⁻¹ s⁻¹; in experiment [2] it was 98300 M⁻¹ s⁻¹; in experiment [3] it was 120000 M⁻¹ s⁻¹; in experiment [4], 124000 M⁻¹ s⁻¹; in experiment [5], 360000 M⁻¹ s⁻¹.

B3: 3C4-18F12 (bispecific antibody, V domains shown)
VH 1: QVQLEQSRAEVKKPGESLRISCKGSGYSFTSYWISWVRQMPGKGLEWMGRIDPSDSYTNYNPSFQGHVTISADKSISTAYLQWSSLKASDTAMYYCARRDGSYFDFDYWGQGTLVTVSS
VH 2: QLQLKESGPGLVKPSETLSLTCTVSGGSISYYYWSWIRQPPGMGLEWIGNIYYSGDTNYNPSLRSRVTISIDMSKNQFSLRLNSVTAADTAVYYCARYDMFKWNYEAFDVWGQGTMVTVSS
VL: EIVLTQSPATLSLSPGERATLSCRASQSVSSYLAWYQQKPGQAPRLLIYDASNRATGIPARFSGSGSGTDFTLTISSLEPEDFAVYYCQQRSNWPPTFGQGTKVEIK
notes: also called anti-PTK7/TROP2 bispecific antibody 3C4-18F12
Regarding B3, the Kd in experiment [1] amounted to 12.1 nM; in experiment [2] it was 36.2 nM; in experiment [3] it was 14.8 nM; in experiment [4], 11.5 nM; in experiment [5], 11.2 nM. In addition, the off-rate (koff) turned out to be 0.00252 s⁻¹ in experiment [1]; 0.00426 s⁻¹ in experiment [2]; 0.00173 s⁻¹ in experiment [3]; 0.00139 s⁻¹ in experiment [4]; 0.0025 s⁻¹ in experiment [5]. For the same molecule, the association rate constant (kon) was determined as 209000 M⁻¹ s⁻¹ in experiment [1]; 118000 M⁻¹ s⁻¹ in experiment [2]; 117000 M⁻¹ s⁻¹ in experiment [3]; 121000 M⁻¹ s⁻¹ in experiment [4]; 224000 M⁻¹ s⁻¹ in experiment [5].

B4: 3E6-18F12 (bispecific antibody, V domains shown)
VH 1: QVQLVESGAEVKKPGESLRISCRGSGYSFTSYWISWVRQMPGKGLEWMGRIDPSDSYTKYSPSFQGHVTISADKSISTAYLQWSSLKASDTAMYYCARRDGDYFDFDYWGQGTLVTVSS
VH 2: QLQLKESGPGLVKPSETLSLTCTVSGGSISYYYWSWIRQPPGMGLEWIGNIYYSGDTNYNPSLRSRVTISIDMSKNQFSLRLNSVTAADTAVYYCARYDMFKWNYEAFDVWGQGTMVTVSS
VL: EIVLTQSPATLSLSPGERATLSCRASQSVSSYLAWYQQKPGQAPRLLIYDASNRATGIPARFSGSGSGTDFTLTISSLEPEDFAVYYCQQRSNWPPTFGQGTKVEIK
notes: also called anti-PTK7/TROP2 bispecific antibody 3E6-18F12
Regarding B4, the equilibrium dissociation constant (Kd) in experiment [1] worked out at 13.9 nM; in experiment [2], 16.4 nM; in experiment [3] it was 4.98 nM; in experiment [4], 2.43 nM; in experiment [5], 13.7 nM. Moreover, the koff stood at 0.00231 s⁻¹ in experiment [1]; 0.00172 s⁻¹ in experiment [2]; 0.000649 s⁻¹ in experiment [3]; 0.000329 s⁻¹ in experiment [4]; 0.00244 s⁻¹ in experiment [5]. Besides, the on-rate (kon) was determined as 166000 M⁻¹ s⁻¹ in experiment [1]; 105000 M⁻¹ s⁻¹ in experiment [2]; 130000 M⁻¹ s⁻¹ in experiment [3]; 135000 M⁻¹ s⁻¹ in experiment [4]; 178000 M⁻¹ s⁻¹ in experiment [5].
